Test results as given in patent publication US20230039401A1, “COMPOSITIONS AND METHODS FOR TREATING NRP2-ASSOCIATED DISEASES” (aTyr Pharma, Inc., priority 2018, published 2023).
“Also recorded” adds a separate entry of the source.

Experiments:
NRP2 [1] = molecular target: T1, NRP2 (Homo sapiens, UniProt O60462); test: SPR protein-protein interaction, human NRP2 over immobilized protein; assay type: binding; conditions: NRP2 flowed as analyte (50 nM or 20 nM); running buffer with 5 mM CaCl2
T1 construct: Fc (C); purchased R&D Systems 2215-N2
Procedure: (§1) Protein-Protein Interaction studies. […] SPR experiments were conducted on a Bio-Rad ProteOn XPR36 Protein Interaction Array instrument. Proteins were immobilized on different channels of ProteOn GLC sensor chips through amine coupling. Analyte proteins were flowed over the immobilized proteins. The sensor chip surface was regenerated between each analyte run to remove interacting proteins. Data was double referenced against an interspot (untreated chip surface) and a blank surface (activated and deactivated for amine coupling).
(§2) Studies were performed to confirm the binding specificity of Neuropilin 2 (NRP2) to Fc-HRS(2-60) using orthologous methods to those used in the large scale Retrogenix screening (Example 1). In a series of experiments, Fc-HRS(2-60) and related proteins were immobilized on SPR chips, and NRP2 and related proteins were flowed as analytes. Upon confirmation of the NRP2:Fc-HRS(2-60) interaction, the dependence on divalent cations was tested as NRP2 is known to have Ca^2+ binding sites. The effects of previously characterized NRP2 ligands on the NRP2: Fc-HRS(2-60) interaction was also tested to determine if these known ligands have competitive effects on the Fc-HRS(2-60) interaction.

mouse NRP2 = molecular target: T2, mouse NRP2 (Mus musculus, UniProt O35375); test: SPR protein-protein interaction, mouse NRP2 over immobilized protein; assay type: binding; conditions: 50 nM mouse NRP2 as analyte
T2 construct: Fc (C); purchased R&D Systems 7988-N2
Procedure: as §1, §2

rat NRP2 = molecular target: T3, rat NRP2 (Rattus norvegicus, UniProt O35276); test: SPR protein-protein interaction, rat NRP2 over immobilized protein; assay type: binding; conditions: 50 nM rat NRP2 as analyte
T3 construct: Fc (C); His (C); purchased R&D Systems 567-N2
T3 sequence (O35276 23-925): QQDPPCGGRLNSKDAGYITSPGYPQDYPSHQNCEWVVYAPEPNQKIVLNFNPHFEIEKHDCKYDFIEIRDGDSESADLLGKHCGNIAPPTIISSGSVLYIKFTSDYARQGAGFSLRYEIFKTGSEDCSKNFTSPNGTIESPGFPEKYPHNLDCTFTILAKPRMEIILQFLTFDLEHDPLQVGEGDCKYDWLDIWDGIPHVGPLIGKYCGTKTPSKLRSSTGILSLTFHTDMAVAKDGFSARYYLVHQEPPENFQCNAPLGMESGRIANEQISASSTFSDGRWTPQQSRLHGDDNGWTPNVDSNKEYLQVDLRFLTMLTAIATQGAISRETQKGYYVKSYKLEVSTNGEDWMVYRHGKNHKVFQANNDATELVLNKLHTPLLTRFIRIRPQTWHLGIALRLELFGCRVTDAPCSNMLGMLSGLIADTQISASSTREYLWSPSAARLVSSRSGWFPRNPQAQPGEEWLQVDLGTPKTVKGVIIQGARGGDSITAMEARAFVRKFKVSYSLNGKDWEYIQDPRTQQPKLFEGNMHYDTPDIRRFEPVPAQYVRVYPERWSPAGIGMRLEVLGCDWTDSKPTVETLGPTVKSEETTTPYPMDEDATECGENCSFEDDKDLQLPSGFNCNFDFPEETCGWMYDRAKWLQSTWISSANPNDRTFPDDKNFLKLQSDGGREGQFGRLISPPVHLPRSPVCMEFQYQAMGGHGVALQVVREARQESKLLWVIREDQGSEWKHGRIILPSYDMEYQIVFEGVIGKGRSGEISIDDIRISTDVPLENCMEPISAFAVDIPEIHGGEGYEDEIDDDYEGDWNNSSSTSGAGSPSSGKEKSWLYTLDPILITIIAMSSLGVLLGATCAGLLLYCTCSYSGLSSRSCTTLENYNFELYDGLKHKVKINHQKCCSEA
Procedure: as §1, §2

[2] = molecular target: T4, cell-expressed NRP2 (NRP2a-GFP fusion protein on HEK293T cells) (Homo sapiens, UniProt O60462); test: Immunofluorescence binding of Fc-HRS (2-60) to HEK293T cells overexpressing NRP2v2-GFP; conditions: HEK293T cells overexpressing NRP2v2-GFP, GFP Bright cells
T4 construct: host or cells: HEK293T
Procedure: Reagents: • PE anti-human IgG Fc Antibody, clone HP6017, Biolegend cat 409304 • Mouse Anti-HRS monoclonal antibody (1-96) Clone 1C8, Abnova cat H00003035-M01 • Mouse IgG2a, Isotype control antibody (MOPC-173), Biolegend cat 400223 • Recombinant Human VEGF-C Protein, R&D Systems, cat 2179-VC-025/CF • Formaldehyde, 16%, methanol free, Ultra Pure, Polysciences, cat 18814-10 • Hoechst 33342, Trihydrochloride, Trihydrate, ThermoFisher Scientific, cat H1399 • Fc-HRS (2-60) was prepared as described in PCT application PCT/US2014/029699 • Gibco DMEM, High Glucose, ThermoFisher Scientific, cat 11965092 • PolyJet™ In Vitro DNA Transfection Reagent, SignaGen, cat SL100688 • Neuropilin 2 (NRP2) (NM_003872) Human ORF Clone, Origene, cat RG220706 • Collagen Coating Solution, Cell Applications Cat 125-100 • 1×PBS containing 1% BSA, 0.9 mM CaCl2 and 20 mM glucose • Binding buffer containing 1% normal mouse IgG (sigma cat 18765) and 2.5% (Human Fc Receptor Binding Inhibitor, ebioscience 14-9161-73).
Cell culture and transfection. […]
Immunofluorescence assays on cultured cells. Binding and quantitation of Fc-HRS (2-60) to cell-expressed NRP2 was achieved using immunofluorescence microscopy. […] The Hoechst stain was replaced with 1×PBS and subsequently read on an IN Cell Analyzer 2200. 20× images were acquired and analyzed using In Cell Analyzer 1000 Workstation software. […]

[3] = molecular target: T5, NRP2:Fc-HRS(2-60) interaction (Homo sapiens, UniProt O60462); test: SPR competition of known NRP2 ligands with the NRP2:Fc-HRS(2-60) interaction; assay type: binding
T5 construct: Fc (C); purchased R&D Systems 2215-N2
Procedure: as §1, §2
(§3) A subset of the known ligands of NRP2 appears to compete binding of Fc-HRS(2-60) to NRP2.

NRP2 [4] = molecular target: T1, NRP2; test: SPR binding of known ligands to NRP2; conditions: known NRP2 ligands
Procedure: as §1, §3

T2 sequence (O35375 21-931): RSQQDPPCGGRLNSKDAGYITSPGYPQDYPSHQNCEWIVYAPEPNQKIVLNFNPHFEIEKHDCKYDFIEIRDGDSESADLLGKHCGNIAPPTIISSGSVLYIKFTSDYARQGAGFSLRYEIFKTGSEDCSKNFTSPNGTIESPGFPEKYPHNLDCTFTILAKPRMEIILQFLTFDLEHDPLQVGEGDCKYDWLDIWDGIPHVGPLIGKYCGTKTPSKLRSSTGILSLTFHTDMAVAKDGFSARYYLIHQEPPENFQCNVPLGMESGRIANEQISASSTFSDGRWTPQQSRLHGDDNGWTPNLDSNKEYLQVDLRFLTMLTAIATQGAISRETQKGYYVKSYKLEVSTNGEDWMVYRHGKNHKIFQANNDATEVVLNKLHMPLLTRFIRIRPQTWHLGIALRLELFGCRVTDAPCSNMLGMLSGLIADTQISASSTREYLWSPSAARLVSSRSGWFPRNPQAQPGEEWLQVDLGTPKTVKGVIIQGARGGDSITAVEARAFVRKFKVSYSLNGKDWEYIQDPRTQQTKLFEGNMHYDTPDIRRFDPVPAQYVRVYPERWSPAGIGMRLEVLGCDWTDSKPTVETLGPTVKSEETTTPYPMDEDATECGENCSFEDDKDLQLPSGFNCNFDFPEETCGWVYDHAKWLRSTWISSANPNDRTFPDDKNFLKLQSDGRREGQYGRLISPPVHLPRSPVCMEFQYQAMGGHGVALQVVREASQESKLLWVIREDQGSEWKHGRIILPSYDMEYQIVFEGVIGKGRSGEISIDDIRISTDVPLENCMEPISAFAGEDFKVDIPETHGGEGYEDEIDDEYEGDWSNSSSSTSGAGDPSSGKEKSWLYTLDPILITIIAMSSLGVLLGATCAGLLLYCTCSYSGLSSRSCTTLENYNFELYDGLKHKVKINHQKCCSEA

| Substance | binding of human NRP2 to immobilized protein (SPR) (NRP2 [1]) | binding of mouse NRP2 to immobilized protein (SPR) (mouse NRP2) | binding of rat NRP2 to immobilized protein (SPR) (rat NRP2) | binding to cell-expressed NRP2a (staining intensity of anti-Fc-PE complex) [2] | effect of ligand on binding of NRP2 to Fc-HRS(2-60) (SPR) ([3]; NRP2 in the presence of the ligand over immobilized Fc-HRS(2-60)) | Competes with Fc-HRS(2-60) for NRP2 binding ([3]; SPR, NRP2 binding to immobilized Fc-HRS(2-60) in presence of ligand) | Binding to NRP2 observed by SPR (NRP2 [4]) |
| --- | --- | --- | --- | --- | --- | --- | --- |
| Fc-HRS(2-11): truncated form of Fc-HRS(2-60) with a 49 amino acid deletion at the C-terminus, deleting the majority of the WHEP domain | not a truncated form of Fc-HRS(2-11); also recorded: none of these NRP2 forms bind | not a truncated form of Fc-HRS(2-11); also recorded: none of these NRP2 forms bind | not a truncated form of Fc-HRS(2-11); also recorded: none of these NRP2 forms bind | negligible specific binding |  |  |  |
| VEGF-A165: commercial protein (Peprotech #100-20) [reference compound] |  |  |  |  | reduced or ablated | Yes | Yes |
